Measured values as given in patent publication US20240084003A1 (SIMCERE ZAIMING PHARMACEUTICAL, published 2024).

B1: F1.161.7 (antibody, human IgG1, kappa, V domains shown)
VH: QVQLQQPGAELVKPGASVKMSCKASGYTFTSYWISWVKQRPGQGLEWIGDIYPGTGSSNYNEKFKSKATLTVDTSSSTAYMQLSSLTSEDSAVYYCARLKFEGIGYWGQGTTLTVSS
VL: QIVLTQSPAIMSASLGEEITLTCSASSSVSYMHWFQQKSGTSPKLLIYSISNLASGVPSRFSGSGSGTFYSLTISSVEAEDAADYYCHQWSSYPWTFGGGTKLEIKR
notes: human-murine chimeric IgG1 kappa
B2: F2.127.11 (antibody, human IgG1, lambda, V domains shown)
VH: QVTLKESGPGILQPSQTLSLTCSFSGFSLSTFGMGVGWIRQPSGKGLEWLAHIWWDDDKHYNPALKSRLTISKDTSRNQVFLKIANVDTADGATYFCARDNWVSSLDYWGQGTSVIVSS
VL: QPVITQSSSASFSLGASAELTCTLSSQHSTYTIEWYQQQPLKPPKYVMGLKKDGSHSTGDGIPDRFSGSSSGADRYLSISNIQPEDEAIYICGVSDTIKEQFVYVFGGGTKVTVLG
notes: human-murine chimeric IgG1 lambda; VL name legible
B3: F1.62.10 human-murine chimeric antibody (antibody, human IgG1, kappa, V domains shown)
VH: QVQLQQSGPELVKPGASVKISCKASGYEFSSIWMNWVKQRPGEGLEWIGRIFPGDGEINYNEKFKGKATLTADRSSTTAYMQLSSLTSEDSAVYFCAGWRIYYGTYGAMDYWGQGTSVTVSS
VL: DIQMTQITSSLSASLGDRVTISCRASQDIGNYLNWYQQKPDGTVKLLIYYTSRLHSGVPSRFSGSGSRTDYSLTISNLQQEDIATYFCQQGNTLPWTFGGGTKLEIKR
notes: Chimeric, human IgG1 / kappa

Experiments:
[1] = target: T1, CD22 on cynomolgus monkey peripheral blood B cells (cynomolgus monkey (Macaca fascicularis)); experiment: FACS, cynomolgus PBMC, CD20+ B cells, antibody 1 nM
T1 construct: whole, on cells; also called cynomolgus monkey B cells
Description: (§1) The monkey peripheral blood mononuclear cells were extracted from fresh cynomolgus monkey peripheral blood (purchased from Shanghai Medicilon Inc.) according to the instructions of Ficoll-Paque Plus (purchased from GE Healthcare, catalog number: 171440-02). After the cell suspension was centrifuged, the cells were resuspended in PBS containing 1% BSA, and then the cells were counted. At the same time, the murine antibody Brilliant Violet 605 anti-human CD20 (catalog number: 302334, purchased from Biolegend) with monkey CD20 cross-binding activity and the chimeric antibodies to be tested (1 nM, 10 nM and 100 nM) were added and incubated at room temperature for 1 hour. After washing the cells three times, APC-labeled secondary antibody anti-human IgG Fc (catalog number: 409306, purchased from Biolegend) was added. After incubation at room temperature in the dark for 30 minutes, the cells were washed 5 times, gently resuspended with PBS containing 1% BSA, and detected and analyzed by FACS (FACS Canto™, purchased from BD Company). Wherein CD20 was used as a marker of B cells, and the CD20-positive B cell population was gated, the proportion of chimeric antibody positive cells was analyzed, and the proportion of chimeric antibody positive cell population to B cell population was calculated after treatments with the chimeric antibodies at the concentrations of 100 nM, 10 nM and 1 nM, respectively. The scatter plot of double-stained cells by Brilliant Violet 605-labeled CD20 and APC secondary antibody indirectly labeled chimeric antibody is shown in FIG. 10A-FIG. 10B (under the condition of 1 nM of chimeric antibody concentration).

[2] = target: T1, CD22 on cynomolgus monkey peripheral …; experiment: FACS, cynomolgus PBMC, CD20+ B cells, antibody 10 nM
Description: as §1

[3] = target: T1, CD22 on cynomolgus monkey peripheral …; experiment: FACS, cynomolgus PBMC, CD20+ B cells, antibody 100 nM
Description: as §1

[4] = target: T2, human CD22, endogenous on Raji cells (human, UniProt P20273 20-847); experiment: FACS, Raji cells
T2 construct: whole, on cells; Endogenous protein of the Raji cell line
T2 sequence (looked up): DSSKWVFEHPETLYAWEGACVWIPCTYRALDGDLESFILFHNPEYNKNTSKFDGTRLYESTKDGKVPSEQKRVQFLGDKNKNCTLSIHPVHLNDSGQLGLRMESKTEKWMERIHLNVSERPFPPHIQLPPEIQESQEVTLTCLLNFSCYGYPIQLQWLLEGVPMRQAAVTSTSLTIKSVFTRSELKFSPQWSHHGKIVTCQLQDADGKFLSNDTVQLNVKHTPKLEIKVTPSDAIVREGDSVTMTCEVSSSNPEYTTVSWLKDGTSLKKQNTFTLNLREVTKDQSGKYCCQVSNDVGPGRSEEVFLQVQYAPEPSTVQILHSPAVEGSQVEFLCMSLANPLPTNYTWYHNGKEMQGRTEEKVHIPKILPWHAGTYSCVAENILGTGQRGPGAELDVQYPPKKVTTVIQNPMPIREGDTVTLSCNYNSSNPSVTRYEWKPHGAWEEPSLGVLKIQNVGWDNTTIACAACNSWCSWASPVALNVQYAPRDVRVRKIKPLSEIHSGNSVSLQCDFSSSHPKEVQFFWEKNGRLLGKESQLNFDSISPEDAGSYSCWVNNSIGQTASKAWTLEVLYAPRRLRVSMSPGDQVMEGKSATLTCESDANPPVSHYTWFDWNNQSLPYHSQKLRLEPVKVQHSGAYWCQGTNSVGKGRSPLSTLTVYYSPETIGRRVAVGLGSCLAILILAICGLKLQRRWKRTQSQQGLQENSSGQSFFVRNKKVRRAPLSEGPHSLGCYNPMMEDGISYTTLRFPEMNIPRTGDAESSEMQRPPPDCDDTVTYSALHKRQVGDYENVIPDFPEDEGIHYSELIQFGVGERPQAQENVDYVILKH
In short: (§2)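 Raji cells and CHO-K1 cells expressing human CD22 were blocked in PBS + 2% BSA at 2×10⁶ cells/ml and incubated with chimeric antibody for 2 h on ice. Bound antibody was detected with an Alexa Fluor 488 secondary for 1 h on ice and read by flow cytometry as MFI. EC50 came from curve fitting.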

[5] = target: T3, human CD22, full length, on CHO-K1-human CD22 2C4 cells (human, UniProt P20273 20-847); experiment: FACS, CHO-K1-human CD22 2C4 cells
T3 construct: Full-length human CD22 (NCBI NP_001762.2) stably transfected into CHO-K1
T3 sequence: T2 sequence (looked up)
In short: as §2

[6] = target: T4, murine CD22 protein (ACROBiosystems, SI2-M52Ha) (murine, UniProt P35329 22-708); experiment: ELISA, coated murine CD22, 10 nM Ab
T4 construct: extracellular domain; also called murine CD22-ECD; murine CD22-ECD-His
T4 sequence (looked up): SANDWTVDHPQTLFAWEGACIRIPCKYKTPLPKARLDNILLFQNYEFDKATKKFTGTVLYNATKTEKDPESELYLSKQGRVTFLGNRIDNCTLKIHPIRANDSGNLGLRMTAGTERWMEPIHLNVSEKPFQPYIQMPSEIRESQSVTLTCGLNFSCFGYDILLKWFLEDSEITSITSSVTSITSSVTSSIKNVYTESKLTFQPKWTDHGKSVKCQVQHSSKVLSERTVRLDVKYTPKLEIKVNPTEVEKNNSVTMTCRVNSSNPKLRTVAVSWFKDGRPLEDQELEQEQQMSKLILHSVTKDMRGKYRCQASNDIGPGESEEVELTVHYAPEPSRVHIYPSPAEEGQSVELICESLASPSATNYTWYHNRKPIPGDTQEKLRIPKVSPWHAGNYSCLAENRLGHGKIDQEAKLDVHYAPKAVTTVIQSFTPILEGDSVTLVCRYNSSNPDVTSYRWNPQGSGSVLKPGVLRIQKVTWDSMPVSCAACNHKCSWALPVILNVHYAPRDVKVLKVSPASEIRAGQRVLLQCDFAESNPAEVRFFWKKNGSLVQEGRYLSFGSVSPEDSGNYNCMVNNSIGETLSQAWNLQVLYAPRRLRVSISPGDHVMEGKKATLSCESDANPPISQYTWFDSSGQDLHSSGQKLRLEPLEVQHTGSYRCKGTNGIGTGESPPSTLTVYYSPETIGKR
In short: (§3)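 Read-out is TMB absorbance after a 30 min room-temperature development stopped with 1.0 N HCl. It reflects chimeric antibody bound to plate-coated CD22 (2 μg/mL), detected with an HRP-labelled secondary antibody. Antibody and secondary incubations each ran 2 h at 37° C.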

[7] = target: T4, murine CD22 protein (ACROBiosystems, …); experiment: ELISA, coated murine CD22, 0.1 nM Ab
In short: as §3

[8] = target: T4, murine CD22 protein (ACROBiosystems, …); experiment: ELISA, coated murine CD22, 100 nM Ab
In short: as §3

[9] = target: T4, murine CD22 protein (ACROBiosystems, …); experiment: ELISA, coated murine CD22, 0.01 nM Ab
In short: as §3

[10] = target: T4, murine CD22 protein (ACROBiosystems, …); experiment: ELISA, coated murine CD22, 0.001 nM Ab
In short: as §3

[11] = target: T4, murine CD22 protein (ACROBiosystems, …); experiment: ELISA, coated murine CD22, 0.0001 nM Ab
In short: as §3

[12] = target: T4, murine CD22 protein (ACROBiosystems, …); experiment: ELISA, coated murine CD22, 0.00001 nM Ab
In short: as §3

Row | Proportion of chimeric antibody positive cells to B cells (%) [1] | Proportion of chimeric antibody positive cells to B cells (%) [2] | Proportion of chimeric antibody positive cells to B cells (%) [3] | EC50 [4] | Maximum mean fluorescence intensity [4] | EC50 [5] | Maximum mean fluorescence intensity [5] | OD450 [6] | OD450 [7] | OD450 [8] | OD450 [9] | OD450 [10] | OD450 [11] | OD450 [12] | Binder
1 | 16% | 21% | 29% |  |  |  |  |  |  |  |  |  |  |  | B1
2 | 20% | 21% | 22% |  |  |  |  |  |  |  |  |  |  |  | B2
3 |  |  |  | 1.1 nM | 25600 MFI | 1.31 nM | 29200 MFI | 0.06 OD450 | 0.05 OD450 | 0.08 OD450 | 0.05 OD450 | 0.05 OD450 | 0.06 OD450 | 0.07 OD450 | B3
